Reference: doi:10.1101/2025.03.07.642005 (bioRxiv, 2025)

What was measured:
[1] = biological target: T1, GatA, subunit A of the aminoacyl-tRNA amidotransferase complex GatCAB (Arabidopsis, UniProt Q9LI77 45-537); experiment: SEC
T1 sequence: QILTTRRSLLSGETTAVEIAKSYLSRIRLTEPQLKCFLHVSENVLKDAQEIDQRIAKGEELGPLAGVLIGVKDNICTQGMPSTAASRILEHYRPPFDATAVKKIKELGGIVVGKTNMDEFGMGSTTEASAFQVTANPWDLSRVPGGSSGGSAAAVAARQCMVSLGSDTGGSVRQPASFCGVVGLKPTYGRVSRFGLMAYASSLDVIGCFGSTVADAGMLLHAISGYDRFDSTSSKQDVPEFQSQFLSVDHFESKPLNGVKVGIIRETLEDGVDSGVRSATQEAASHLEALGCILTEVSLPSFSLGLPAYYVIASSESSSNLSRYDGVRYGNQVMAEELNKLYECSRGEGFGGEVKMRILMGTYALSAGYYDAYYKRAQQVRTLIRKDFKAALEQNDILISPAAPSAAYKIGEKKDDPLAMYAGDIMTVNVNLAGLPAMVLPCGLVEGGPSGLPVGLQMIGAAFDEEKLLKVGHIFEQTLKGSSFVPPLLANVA

[2] = biological target: T2, GatB, subunit B of the aminoacyl-tRNA amidotransferase complex GatCAB (Arabidopsis, UniProt Q9FV81 60-550); experiment: SEC
T2 sequence: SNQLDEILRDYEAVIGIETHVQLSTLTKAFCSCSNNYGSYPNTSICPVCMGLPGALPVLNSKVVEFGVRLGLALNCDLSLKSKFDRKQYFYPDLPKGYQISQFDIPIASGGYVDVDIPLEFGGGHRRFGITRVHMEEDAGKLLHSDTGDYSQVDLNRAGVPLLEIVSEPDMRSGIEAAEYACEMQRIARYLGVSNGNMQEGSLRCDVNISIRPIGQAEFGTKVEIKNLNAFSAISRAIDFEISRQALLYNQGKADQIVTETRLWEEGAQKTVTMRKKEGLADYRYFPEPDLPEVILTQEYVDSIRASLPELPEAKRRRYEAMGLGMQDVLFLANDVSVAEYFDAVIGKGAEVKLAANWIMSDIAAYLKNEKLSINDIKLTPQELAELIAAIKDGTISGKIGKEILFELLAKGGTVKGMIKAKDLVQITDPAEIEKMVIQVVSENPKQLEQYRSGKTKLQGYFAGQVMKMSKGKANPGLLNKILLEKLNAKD

- binding result [1]: binds
- binding result [2]: binds
B1: GatC, subunit C of the aminoacyl-tRNA amidotransferase complex GatCAB (natural protein)
chain: RSYSSDSDSSVLQPPDVARLAQTARISLTPAEIEECETKIRRVIDWFGQLQQVDVNSVEPAIRAEMDGGNLREDAPETFDNRDSIRASIPSFEDAYLKVPKILNKE
